Results reported in patent US20170355766A1 (Xencor, published 2017).
Numbering of substitutions follows the chain as printed. Names and notes keep the numbering of the source.

Tests used:
FcγRIIIaF = biological target: T1, FcγRIIIaF (human, UniProt P08637); test: SPR (Biacore)
T1 construct: recombinant receptor protein with 6xHis and GST tags; also called F158 FcγRIIIa

[1] = biological target: T2, human V158 FcγRIIIa receptor protein (6xHis and GST tags) (human, UniProt P08637 17-208, limits assumed); test: SPR (Biacore)
T2 construct: also called VIIIa

FcγRIIaR = biological target: T3, FcγRIIaR (human, UniProt P12318); test: SPR (Biacore)
T3 construct: recombinant receptor protein with 6xHis and GST tags; also called R131 FcγRIIa
T3 sequence (receptor, looked up): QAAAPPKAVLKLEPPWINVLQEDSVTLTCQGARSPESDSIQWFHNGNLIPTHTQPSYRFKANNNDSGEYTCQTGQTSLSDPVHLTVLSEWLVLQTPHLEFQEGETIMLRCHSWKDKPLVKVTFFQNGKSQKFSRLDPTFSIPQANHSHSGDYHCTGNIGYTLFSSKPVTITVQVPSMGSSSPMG

[2] = biological target: T4, human FcγRIIb receptor protein (R&D Systems) (human, UniProt P31994 46-217); test: SPR (Biacore)
T4 construct: Analyte injected over antibodies captured on a protein A/G chip (Biacore); also called CD32b
T4 sequence (looked up): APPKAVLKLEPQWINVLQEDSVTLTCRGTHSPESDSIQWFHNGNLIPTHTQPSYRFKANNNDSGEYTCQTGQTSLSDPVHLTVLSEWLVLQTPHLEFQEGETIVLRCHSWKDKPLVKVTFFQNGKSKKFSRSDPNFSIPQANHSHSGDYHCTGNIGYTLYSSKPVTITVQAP

[3] = biological target: T5, human H131 FcγRIIa receptor protein (6xHis and GST tags) (human, UniProt P12318 34-217, limits assumed); test: SPR (Biacore)
T5 construct: also called HIIa
T5 sequence (looked up): T3 sequence (receptor, looked up) with R134H

[4] = biological target: T6, human FcγRI receptor protein (R&D Systems) (human, UniProt P12314 16-288); test: SPR (Biacore)
T6 construct: also called CD64

[5] = biological target: T7, human FcγRIIb on the cell surface (HEK293T cells transfected with human FcγRIIb cDNA; primary human B cells) (human, UniProt P31994 43-310); test: flow cytometry on FcγRIIb-transfected HEK293T cells
T7 chain: T4 sequence (looked up)

T1 sequence (P08637 17-208 limits assumed): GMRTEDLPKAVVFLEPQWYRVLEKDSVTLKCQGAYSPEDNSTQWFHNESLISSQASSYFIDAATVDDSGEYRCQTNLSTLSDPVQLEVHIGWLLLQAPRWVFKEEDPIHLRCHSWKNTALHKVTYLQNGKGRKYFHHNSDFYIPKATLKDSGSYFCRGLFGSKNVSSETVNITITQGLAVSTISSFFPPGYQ
T2 sequence (P08637 17-208 F176V limits assumed): as the sequence (P08637 17-208 limits assumed) above, with F160V counted along it
T6 sequence (P12314 16-288 limits assumed): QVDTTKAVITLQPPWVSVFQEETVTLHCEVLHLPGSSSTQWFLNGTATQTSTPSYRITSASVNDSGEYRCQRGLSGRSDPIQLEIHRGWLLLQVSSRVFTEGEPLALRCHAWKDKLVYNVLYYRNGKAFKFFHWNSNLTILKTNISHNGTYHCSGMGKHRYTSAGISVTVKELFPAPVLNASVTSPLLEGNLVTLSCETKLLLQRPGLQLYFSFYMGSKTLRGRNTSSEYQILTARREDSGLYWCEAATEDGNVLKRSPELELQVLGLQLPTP

B1: G236D (antibody, human IgG1, kappa)
heavy: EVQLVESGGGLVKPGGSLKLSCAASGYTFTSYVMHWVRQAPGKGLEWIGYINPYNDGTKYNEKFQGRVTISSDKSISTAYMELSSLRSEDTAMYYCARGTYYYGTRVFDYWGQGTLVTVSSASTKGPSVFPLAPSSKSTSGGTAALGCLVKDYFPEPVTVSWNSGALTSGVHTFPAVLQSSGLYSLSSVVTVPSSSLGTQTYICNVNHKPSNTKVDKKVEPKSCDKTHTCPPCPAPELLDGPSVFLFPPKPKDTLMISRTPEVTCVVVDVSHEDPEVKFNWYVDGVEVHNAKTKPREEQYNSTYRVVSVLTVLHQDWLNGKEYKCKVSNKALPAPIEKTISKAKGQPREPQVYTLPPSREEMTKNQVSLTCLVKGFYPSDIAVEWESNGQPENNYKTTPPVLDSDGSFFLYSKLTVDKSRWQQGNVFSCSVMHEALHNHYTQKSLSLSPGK
light: DIVMTQSPATLSLSPGERATLSCRSSKSLQNVNGNTYLYWFQQKPGQSPQLLIYRMSNLNSGVPDRFSGSGSGTEFTLTISSLEPEDFAVYYCMQHLEYPITFGAGTKLEIKRTVAAPSVFIFPPSDEQLKSGTASVVCLLNNFYPREAKVQWKVDNALQSGNSQESVTEQDSKDSTYSLSSTLTLSKADYEKHKVYACEVTHQGLSSPVTKSFNRGEC
notes: HuAM4G7 IgG1 Fc variant
FcγRIIIaF
  binding result: no binding
[1]
  binding result: no binding
FcγRIIaR
  Fold FcγRIIaR: 0.758 fold
[2]
  Fold FcγRIIb: 1.54 fold
[3]
  Fold FcγRIIaH: 0.167 fold
[4]
  Fold FcγRI: 0.0211 fold

B2: ^236R/L328R (antibody, human IgG1, kappa)
heavy: EVQLVESGGGLVKPGGSLKLSCAASGYTFTSYVMHWVRQAPGKGLEWIGYINPYNDGTKYNEKFQGRVTISSDKSISTAYMELSSLRSEDTAMYYCARGTYYYGTRVFDYWGQGTLVTVSSASTKGPSVFPLAPSSKSTSGGTAALGCLVKDYFPEPVTVSWNSGALTSGVHTFPAVLQSSGLYSLSSVVTVPSSSLGTQTYICNVNHKPSNTKVDKKVEPKSCDKTHTCPPCPAPELLGRGPSVFLFPPKPKDTLMISRTPEVTCVVVDVSHEDPEVKFNWYVDGVEVHNAKTKPREEQYNSTYRVVSVLTVLHQDWLNGKEYKCKVSNKARPAPIEKTISKAKGQPREPQVYTLPPSREEMTKNQVSLTCLVKGFYPSDIAVEWESNGQPENNYKTTPPVLDSDGSFFLYSKLTVDKSRWQQGNVFSCSVMHEALHNHYTQKSLSLSPGK
light: B1 light
notes: HuAM4G7 IgG1 Fc variant; also called Fc-KO; FcγR knockout
FcγRIIIaF
  binding result: no binding
[1]
  binding result: no binding
FcγRIIaR
  binding result: no binding
[2]
  binding result: no binding
[3]
  binding result: no binding
[4]
  binding result: no binding

B3: L235F/S267E (antibody, human IgG1, kappa)
heavy: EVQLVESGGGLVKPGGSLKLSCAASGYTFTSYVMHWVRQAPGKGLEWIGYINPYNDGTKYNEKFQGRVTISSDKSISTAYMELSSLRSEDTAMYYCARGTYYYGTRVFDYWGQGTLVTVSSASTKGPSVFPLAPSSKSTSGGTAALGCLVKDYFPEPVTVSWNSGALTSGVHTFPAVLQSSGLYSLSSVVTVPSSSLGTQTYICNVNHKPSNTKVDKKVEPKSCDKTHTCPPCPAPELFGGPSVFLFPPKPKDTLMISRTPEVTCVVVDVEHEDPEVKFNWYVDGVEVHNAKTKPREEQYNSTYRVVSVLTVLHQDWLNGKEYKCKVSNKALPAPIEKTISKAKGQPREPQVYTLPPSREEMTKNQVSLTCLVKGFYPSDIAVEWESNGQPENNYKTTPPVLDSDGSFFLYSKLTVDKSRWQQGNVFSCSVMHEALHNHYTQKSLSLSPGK
light: B1 light
notes: HuAM4G7 IgG1 Fc variant
[1]
  binding result: no binding
FcγRIIaR
  Fold FcγRIIaR: 32.5 fold
[2]
  Fold FcγRIIb: 28.4 fold
[3]
  Fold FcγRIIaH: 0.402 fold
[4]
  Fold FcγRI: 0.0176 fold

B4: L235Y/S267E/L328F (antibody, human IgG1, kappa)
heavy: EVQLVESGGGLVKPGGSLKLSCAASGYTFTSYVMHWVRQAPGKGLEWIGYINPYNDGTKYNEKFQGRVTISSDKSISTAYMELSSLRSEDTAMYYCARGTYYYGTRVFDYWGQGTLVTVSSASTKGPSVFPLAPSSKSTSGGTAALGCLVKDYFPEPVTVSWNSGALTSGVHTFPAVLQSSGLYSLSSVVTVPSSSLGTQTYICNVNHKPSNTKVDKKVEPKSCDKTHTCPPCPAPELYGGPSVFLFPPKPKDTLMISRTPEVTCVVVDVEHEDPEVKFNWYVDGVEVHNAKTKPREEQYNSTYRVVSVLTVLHQDWLNGKEYKCKVSNKAFPAPIEKTISKAKGQPREPQVYTLPPSREEMTKNQVSLTCLVKGFYPSDIAVEWESNGQPENNYKTTPPVLDSDGSFFLYSKLTVDKSRWQQGNVFSCSVMHEALHNHYTQKSLSLSPGK
light: B1 light
notes: HuAM4G7 IgG1 Fc variant
[1]
  binding result: no binding
FcγRIIaR
  Fold FcγRIIaR: 171 fold
[2]
  Fold FcγRIIb: 187 fold
[3]
  Fold FcγRIIaH: 0.758 fold
[4]
  Fold FcγRI: 0.00436 fold

B5: L235I (antibody, human IgG1, kappa)
heavy: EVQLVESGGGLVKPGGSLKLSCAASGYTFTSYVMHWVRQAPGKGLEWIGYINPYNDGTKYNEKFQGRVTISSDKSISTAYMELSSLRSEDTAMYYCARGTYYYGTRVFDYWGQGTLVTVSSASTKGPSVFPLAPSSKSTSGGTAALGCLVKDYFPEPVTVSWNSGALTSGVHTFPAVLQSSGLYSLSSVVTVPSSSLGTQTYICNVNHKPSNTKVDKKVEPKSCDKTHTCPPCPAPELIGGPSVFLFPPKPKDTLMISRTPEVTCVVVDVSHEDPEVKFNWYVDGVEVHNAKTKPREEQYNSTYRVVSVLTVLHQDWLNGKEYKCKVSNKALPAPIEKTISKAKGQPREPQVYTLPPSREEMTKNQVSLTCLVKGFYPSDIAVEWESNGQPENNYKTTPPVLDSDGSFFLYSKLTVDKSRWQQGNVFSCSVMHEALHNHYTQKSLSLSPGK
light: B1 light
notes: HuAM4G7 IgG1 Fc variant
[1]
  Fold FcγRIIIaV: 0.903 fold
FcγRIIaR
  Fold FcγRIIaR: 0.666 fold
[2]
  Fold FcγRIIb: 0.908 fold
[3]
  Fold FcγRIIaH: 0.181 fold
[4]
  Fold FcγRI: 0.0197 fold

B6: L235Y (antibody, human IgG1, kappa)
heavy: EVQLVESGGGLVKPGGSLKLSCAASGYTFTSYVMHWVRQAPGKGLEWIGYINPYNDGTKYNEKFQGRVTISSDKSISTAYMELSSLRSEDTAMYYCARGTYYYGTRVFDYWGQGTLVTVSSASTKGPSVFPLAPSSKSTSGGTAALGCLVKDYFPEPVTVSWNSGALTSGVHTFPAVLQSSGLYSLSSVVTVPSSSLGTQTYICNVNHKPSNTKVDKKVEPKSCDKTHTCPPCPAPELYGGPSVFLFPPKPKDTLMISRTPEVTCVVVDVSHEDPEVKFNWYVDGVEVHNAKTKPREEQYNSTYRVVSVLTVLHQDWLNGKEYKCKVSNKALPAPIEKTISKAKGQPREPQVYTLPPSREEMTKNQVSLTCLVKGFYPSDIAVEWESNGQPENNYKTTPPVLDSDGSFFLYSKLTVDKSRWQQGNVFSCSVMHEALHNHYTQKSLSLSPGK
light: B1 light
notes: HuAM4G7 IgG1 Fc variant
[1]
  Fold FcγRIIIaV: 0.504 fold
FcγRIIaR
  Fold FcγRIIaR: 1.28 fold
[2]
  Fold FcγRIIb: 1.05 fold
[3]
  Fold FcγRIIaH: 1.35 fold
[4]
  Fold FcγRI: 0.00232 fold

B7: L235Y/S267E/H268E (antibody, human IgG1, kappa)
heavy: B4 heavy with H272E, F332L
light: B1 light
notes: HuAM4G7 IgG1 Fc variant
[1]
  Fold FcγRIIIaV: 0.428 fold
FcγRIIaR
  Fold FcγRIIaR: 48.2 fold
[2]
  Fold FcγRIIb: 69.9 fold
[3]
  Fold FcγRIIaH: 0.157 fold
[4]
  Fold FcγRI: 0.0103 fold

B8: L234F (antibody, human IgG1, kappa)
heavy: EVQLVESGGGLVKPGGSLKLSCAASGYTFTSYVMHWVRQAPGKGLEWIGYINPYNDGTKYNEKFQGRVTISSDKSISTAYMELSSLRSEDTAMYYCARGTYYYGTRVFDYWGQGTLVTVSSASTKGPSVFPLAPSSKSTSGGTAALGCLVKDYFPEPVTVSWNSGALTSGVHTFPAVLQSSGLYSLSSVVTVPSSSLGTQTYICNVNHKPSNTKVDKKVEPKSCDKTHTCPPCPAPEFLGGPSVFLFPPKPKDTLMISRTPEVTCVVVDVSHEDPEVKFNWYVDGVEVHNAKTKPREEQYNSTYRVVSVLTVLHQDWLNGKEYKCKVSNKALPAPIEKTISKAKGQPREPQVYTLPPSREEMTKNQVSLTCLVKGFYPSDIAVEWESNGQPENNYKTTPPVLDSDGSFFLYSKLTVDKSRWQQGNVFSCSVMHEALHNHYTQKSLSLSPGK
light: B1 light
notes: HuAM4G7 IgG1 Fc variant
[1]
  binding result: no binding
FcγRIIaR
  Fold FcγRIIaR: 0.228 fold
[2]
  Fold FcγRIIb: 0.409 fold
[3]
  binding result: no binding
[4]
  Fold FcγRI: 0.0362 fold

B9: S267E/A327E (antibody, human IgG1, kappa)
heavy: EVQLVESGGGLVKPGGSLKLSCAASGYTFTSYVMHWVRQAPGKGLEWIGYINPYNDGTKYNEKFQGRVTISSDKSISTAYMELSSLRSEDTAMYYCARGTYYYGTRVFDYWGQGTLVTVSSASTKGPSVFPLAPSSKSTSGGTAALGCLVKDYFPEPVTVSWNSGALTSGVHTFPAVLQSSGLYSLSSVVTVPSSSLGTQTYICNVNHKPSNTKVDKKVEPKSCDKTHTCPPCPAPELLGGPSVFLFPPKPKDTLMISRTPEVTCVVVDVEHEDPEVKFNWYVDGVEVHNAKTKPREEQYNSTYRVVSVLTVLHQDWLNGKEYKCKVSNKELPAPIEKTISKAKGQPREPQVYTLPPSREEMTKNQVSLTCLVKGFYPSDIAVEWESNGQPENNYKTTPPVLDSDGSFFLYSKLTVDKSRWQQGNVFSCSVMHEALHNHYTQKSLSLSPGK
light: B1 light
notes: HuAM4G7 IgG1 Fc variant
FcγRIIaR
  Fold FcγRIIaR: 29.3 fold
[2]
  Fold FcγRIIb: 30.9 fold
[4]
  Fold FcγRI: 2.3 fold
[5]
  EC50 (read off the curve): ~10 ng/mL

B10: L235D/S267E (antibody, human IgG1, kappa)
heavy: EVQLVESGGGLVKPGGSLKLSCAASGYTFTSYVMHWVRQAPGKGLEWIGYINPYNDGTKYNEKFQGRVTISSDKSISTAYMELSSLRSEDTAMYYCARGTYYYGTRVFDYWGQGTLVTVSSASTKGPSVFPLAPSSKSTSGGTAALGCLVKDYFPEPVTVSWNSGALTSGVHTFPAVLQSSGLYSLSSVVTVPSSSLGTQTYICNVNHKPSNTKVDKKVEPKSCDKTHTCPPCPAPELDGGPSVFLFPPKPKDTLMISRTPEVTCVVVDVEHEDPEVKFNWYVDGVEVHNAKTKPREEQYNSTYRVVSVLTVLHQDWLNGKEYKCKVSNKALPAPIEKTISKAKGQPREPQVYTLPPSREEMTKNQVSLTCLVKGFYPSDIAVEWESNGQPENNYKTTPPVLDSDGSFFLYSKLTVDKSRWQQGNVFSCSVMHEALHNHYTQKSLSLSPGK
light: B1 light
notes: HuAM4G7 IgG1 Fc variant
[1]
  binding result: no binding
FcγRIIaR
  Fold FcγRIIaR: 13 fold
[2]
  Fold FcγRIIb: 16.7 fold
[3]
  binding result: no binding
[4]
  Fold FcγRI: 0.00039 fold

B11: L235Y/G236D/S267E (antibody, human IgG1, kappa)
heavy: B4 heavy with G240D, F332L
light: B1 light
notes: HuAM4G7 IgG1 Fc variant
[1]
  binding result: no binding
FcγRIIaR
  Fold FcγRIIaR: 9.67 fold
[2]
  Fold FcγRIIb: 25 fold
[3]
  binding result: no binding
[4]
  binding result: no binding

B12: L235Y/S239D/S267E (antibody, human IgG1, kappa)
heavy: B4 heavy with S243D, F332L
light: B1 light
notes: HuAM4G7 IgG1 Fc variant
[1]
  Fold FcγRIIIaV: 2.6 fold
FcγRIIaR
  Fold FcγRIIaR: 98.9 fold
[2]
  Fold FcγRIIb: 116 fold
[3]
  Fold FcγRIIaH: 1.05 fold
[4]
  Fold FcγRI: 1.07 fold

B13: L235D/S267E/L328F (antibody, human IgG1, kappa)
heavy: B4 heavy with Y239D
light: B1 light
notes: HuAM4G7 IgG1 Fc variant
[1]
  binding result: no binding
FcγRIIaR
  Fold FcγRIIaR: 133 fold
[2]
  Fold FcγRIIb: 80.4 fold
[3]
  Fold FcγRIIaH: 0.275 fold
[4]
  Fold FcγRI: 0.00057 fold

B14: L234E/S267E/L328F (antibody, human IgG1, kappa)
heavy: B4 heavy with L238E, Y239L
light: B1 light
notes: HuAM4G7 IgG1 Fc variant
[1]
  binding result: no binding
FcγRIIaR
  Fold FcγRIIaR: 174 fold
[2]
  Fold FcγRIIb: 195 fold
[3]
  Fold FcγRIIaH: 0.0725 fold
[4]
  Fold FcγRI: 0.0425 fold

B15: G236R/L328R (antibody, human IgG1, kappa)
heavy: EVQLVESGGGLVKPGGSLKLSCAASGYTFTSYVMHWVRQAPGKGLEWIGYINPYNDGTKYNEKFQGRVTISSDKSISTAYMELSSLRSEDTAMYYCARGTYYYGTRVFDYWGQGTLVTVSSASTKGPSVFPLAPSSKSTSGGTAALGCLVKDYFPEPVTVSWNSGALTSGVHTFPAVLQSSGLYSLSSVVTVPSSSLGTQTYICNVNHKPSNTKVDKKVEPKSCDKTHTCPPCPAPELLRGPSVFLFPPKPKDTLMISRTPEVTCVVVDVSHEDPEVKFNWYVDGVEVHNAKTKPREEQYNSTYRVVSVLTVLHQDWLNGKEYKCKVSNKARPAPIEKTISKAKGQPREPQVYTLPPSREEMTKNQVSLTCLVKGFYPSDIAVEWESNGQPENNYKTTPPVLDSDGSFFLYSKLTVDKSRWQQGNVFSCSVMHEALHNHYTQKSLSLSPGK
light: B1 light
notes: as for B2
FcγRIIIaF
  binding result: no binding
[1]
  binding result: no binding
FcγRIIaR
  binding result: no binding
[2]
  binding result: no binding
[3]
  binding result: no binding
[4]
  binding result: no binding

B16: S239D (antibody, human IgG1, kappa)
heavy: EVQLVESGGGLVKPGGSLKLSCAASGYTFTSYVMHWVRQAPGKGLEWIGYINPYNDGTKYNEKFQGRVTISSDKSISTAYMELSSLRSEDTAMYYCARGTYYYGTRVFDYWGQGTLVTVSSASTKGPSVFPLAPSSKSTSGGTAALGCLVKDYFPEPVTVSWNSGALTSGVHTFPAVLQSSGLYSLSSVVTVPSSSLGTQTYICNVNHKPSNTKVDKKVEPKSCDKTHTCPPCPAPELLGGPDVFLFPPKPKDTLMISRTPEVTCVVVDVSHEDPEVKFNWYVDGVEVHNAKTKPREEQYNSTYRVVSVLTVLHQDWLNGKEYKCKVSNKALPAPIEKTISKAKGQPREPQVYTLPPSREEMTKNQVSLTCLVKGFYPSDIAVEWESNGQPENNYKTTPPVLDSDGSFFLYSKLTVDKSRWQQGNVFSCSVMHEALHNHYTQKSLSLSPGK
light: B1 light
notes: HuAM4G7 IgG1 Fc variant
FcγRIIIaF
  Fold FcγRIIIaF: 6.32 fold
[1]
  Fold FcγRIIIaV: 8.14 fold
FcγRIIaR
  Fold FcγRIIaR: 3.73 fold
[2]
  Fold FcγRIIb: 3.6 fold
[3]
  Fold FcγRIIaH: 1.1 fold
[4]
  Fold FcγRI: 3.53 fold

B17: L235A (antibody, human IgG1, kappa)
heavy: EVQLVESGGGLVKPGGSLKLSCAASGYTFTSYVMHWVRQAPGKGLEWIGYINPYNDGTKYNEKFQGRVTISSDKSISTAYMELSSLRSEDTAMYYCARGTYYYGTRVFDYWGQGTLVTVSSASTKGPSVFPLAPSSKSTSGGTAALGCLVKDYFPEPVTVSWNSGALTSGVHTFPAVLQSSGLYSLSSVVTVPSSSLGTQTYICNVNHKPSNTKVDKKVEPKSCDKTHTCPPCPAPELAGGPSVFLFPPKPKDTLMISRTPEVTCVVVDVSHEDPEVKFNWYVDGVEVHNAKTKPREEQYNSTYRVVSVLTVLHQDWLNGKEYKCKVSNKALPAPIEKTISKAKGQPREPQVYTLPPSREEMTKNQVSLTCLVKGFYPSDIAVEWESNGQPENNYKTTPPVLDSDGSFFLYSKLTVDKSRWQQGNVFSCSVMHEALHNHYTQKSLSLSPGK
light: B1 light
notes: HuAM4G7 IgG1 Fc variant
[1]
  Fold FcγRIIIaV: 0.314 fold
FcγRIIaR
  Fold FcγRIIaR: 0.166 fold
[2]
  Fold FcγRIIb: 0.351 fold
[3]
  Fold FcγRIIaH: 0.0486 fold
[4]
  Fold FcγRI: 0.0179 fold

B18: L234F/S267E (antibody, human IgG1, kappa)
heavy: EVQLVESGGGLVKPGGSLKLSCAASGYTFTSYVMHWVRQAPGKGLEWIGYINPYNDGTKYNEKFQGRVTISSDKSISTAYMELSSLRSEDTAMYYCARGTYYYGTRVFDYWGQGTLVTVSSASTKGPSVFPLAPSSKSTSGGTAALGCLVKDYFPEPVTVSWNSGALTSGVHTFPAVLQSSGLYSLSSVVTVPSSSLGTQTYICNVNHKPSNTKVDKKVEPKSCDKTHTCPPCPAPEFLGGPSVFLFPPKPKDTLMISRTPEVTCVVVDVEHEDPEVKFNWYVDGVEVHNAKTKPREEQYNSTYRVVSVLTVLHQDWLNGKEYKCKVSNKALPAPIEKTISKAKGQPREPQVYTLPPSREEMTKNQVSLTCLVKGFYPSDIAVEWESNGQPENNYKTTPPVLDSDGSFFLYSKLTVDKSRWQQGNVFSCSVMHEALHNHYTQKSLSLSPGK
light: B1 light
notes: HuAM4G7 IgG1 Fc variant
[1]
  Fold FcγRIIIaV: 0.0938 fold
FcγRIIaR
  Fold FcγRIIaR: 20.7 fold
[2]
  Fold FcγRIIb: 26.4 fold
[3]
  Fold FcγRIIaH: 0.509 fold
[4]
  Fold FcγRI: 0.661 fold
